Source: the supplement of paper PMC9876800

Test system: peptide library, one residue held at a place counted from the S/T acceptor
Assay: relative phosphorylation of the sub-library (ratio to the mean residue at this position); human; higher = residue favoured
Conditions: V fixed; at +3
How it was run: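 Relative sub-library phosphorylation is the ratio of each sub-library's signal to the mean residue at that position. The signal came from phosphorimaging of spots on streptavidin membranes, quantified by densitometry, after purified recombinant kinases reacted with biotinylated degenerate peptide sub-libraries in 384-well plates. Reactions held 50 μM peptide and 50 μM ATP spiked with γ-32P-ATP for 90 min under kinase-specific conditions.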

Sequence of MASTL, construct: Full length (Q96GX5 whole entry, looked up): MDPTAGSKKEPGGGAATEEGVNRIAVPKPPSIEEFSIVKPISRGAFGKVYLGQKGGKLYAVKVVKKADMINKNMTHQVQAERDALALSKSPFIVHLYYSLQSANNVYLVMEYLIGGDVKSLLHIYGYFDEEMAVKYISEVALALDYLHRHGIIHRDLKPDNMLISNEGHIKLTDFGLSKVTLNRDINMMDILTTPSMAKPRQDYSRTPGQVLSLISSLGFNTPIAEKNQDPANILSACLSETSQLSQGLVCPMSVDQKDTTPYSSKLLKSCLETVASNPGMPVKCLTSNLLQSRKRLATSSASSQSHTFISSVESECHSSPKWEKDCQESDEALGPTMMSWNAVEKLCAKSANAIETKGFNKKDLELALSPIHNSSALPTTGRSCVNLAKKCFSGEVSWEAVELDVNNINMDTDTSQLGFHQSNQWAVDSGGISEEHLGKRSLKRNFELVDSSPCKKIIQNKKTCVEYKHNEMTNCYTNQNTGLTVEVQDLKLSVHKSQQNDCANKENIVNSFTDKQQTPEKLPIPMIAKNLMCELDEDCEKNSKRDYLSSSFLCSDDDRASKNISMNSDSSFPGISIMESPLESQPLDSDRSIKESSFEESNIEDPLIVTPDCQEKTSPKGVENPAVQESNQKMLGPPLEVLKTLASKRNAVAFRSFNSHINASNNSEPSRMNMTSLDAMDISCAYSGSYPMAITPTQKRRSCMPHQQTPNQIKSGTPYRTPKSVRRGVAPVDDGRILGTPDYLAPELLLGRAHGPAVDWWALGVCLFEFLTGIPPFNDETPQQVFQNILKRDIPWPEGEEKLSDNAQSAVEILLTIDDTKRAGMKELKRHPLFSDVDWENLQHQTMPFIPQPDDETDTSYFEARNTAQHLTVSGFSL
Sequence of MELK, construct: aa1-340 (Q14680 1-340, looked up): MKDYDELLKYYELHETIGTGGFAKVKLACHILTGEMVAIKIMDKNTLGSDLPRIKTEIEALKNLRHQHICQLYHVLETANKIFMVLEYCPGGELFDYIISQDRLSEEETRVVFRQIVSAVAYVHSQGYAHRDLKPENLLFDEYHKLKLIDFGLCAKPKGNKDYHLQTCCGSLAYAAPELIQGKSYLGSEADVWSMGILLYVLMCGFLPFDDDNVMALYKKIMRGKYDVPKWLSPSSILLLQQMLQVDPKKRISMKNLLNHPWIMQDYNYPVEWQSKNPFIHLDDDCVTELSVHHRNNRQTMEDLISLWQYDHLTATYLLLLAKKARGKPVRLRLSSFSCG
Sequence of PAK3, construct: Full length (O75914 whole entry, looked up): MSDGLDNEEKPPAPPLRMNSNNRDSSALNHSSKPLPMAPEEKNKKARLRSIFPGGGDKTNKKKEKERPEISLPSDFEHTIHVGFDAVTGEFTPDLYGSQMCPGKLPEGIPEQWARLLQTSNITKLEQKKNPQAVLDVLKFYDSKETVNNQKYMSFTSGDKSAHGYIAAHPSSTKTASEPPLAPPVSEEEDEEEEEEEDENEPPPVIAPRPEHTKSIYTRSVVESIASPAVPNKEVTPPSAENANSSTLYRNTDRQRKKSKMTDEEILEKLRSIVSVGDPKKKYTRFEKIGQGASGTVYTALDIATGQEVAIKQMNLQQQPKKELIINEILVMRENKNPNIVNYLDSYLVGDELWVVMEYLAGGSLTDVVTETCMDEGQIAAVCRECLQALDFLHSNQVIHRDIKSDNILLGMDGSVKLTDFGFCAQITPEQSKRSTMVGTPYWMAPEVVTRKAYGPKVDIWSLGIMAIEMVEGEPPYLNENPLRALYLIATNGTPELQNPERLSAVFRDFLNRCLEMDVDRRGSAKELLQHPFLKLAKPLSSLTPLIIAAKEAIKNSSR
Sequence of CLK3, construct: Full length (P49761 whole entry, looked up): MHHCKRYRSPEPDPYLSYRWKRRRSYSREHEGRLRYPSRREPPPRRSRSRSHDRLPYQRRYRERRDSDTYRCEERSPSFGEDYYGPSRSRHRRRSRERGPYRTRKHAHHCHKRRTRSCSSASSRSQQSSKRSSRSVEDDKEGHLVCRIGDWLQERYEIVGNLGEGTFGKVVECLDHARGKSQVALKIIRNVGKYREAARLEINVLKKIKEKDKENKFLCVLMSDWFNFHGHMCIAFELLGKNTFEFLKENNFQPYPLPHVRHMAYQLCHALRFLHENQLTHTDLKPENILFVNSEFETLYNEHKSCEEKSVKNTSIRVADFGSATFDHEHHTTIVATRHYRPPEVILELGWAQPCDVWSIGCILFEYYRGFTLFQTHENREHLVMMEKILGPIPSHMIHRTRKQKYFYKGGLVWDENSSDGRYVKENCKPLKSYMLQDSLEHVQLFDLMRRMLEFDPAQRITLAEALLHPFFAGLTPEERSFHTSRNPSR
Sequence of TTK, construct: Full length (P33981 whole entry, looked up): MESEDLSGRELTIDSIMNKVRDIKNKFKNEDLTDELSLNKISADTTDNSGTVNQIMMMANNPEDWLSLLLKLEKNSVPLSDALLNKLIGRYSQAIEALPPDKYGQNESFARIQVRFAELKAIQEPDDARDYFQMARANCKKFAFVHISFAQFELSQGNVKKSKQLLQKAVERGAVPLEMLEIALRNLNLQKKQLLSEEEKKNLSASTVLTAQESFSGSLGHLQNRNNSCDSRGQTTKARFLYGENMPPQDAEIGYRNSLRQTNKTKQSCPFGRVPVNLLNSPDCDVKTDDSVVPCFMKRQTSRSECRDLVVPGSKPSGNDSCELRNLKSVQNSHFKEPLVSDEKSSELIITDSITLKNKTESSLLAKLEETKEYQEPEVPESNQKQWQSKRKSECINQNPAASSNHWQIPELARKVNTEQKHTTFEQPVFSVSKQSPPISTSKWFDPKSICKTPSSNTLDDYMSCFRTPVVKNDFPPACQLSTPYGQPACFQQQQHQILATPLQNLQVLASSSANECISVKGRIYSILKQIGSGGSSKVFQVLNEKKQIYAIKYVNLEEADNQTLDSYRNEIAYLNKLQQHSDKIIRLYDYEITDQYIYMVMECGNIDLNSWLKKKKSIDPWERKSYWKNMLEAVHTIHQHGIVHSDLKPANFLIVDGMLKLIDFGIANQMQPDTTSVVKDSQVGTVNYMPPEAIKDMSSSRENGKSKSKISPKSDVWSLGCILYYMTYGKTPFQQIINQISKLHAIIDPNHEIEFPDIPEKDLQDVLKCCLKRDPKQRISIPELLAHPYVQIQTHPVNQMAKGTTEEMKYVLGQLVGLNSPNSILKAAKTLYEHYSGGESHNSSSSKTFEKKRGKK
Sequence of PRPF4B, construct: aa519-end (Q13523 519-1007, looked up): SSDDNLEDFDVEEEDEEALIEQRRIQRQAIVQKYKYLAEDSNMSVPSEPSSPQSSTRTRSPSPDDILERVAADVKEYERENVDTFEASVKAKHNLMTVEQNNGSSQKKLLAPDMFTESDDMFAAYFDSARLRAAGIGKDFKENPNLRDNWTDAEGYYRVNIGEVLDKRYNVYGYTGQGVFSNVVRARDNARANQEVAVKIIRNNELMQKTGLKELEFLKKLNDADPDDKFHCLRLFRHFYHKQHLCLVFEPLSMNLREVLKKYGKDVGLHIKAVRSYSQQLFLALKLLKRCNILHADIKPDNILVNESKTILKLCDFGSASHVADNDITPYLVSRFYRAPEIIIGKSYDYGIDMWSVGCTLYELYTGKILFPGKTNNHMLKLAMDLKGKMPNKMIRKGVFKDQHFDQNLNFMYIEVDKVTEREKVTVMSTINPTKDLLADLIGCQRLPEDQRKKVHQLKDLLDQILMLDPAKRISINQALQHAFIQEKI
Sequence of GRK5, construct: Full length (P34947 whole entry, looked up): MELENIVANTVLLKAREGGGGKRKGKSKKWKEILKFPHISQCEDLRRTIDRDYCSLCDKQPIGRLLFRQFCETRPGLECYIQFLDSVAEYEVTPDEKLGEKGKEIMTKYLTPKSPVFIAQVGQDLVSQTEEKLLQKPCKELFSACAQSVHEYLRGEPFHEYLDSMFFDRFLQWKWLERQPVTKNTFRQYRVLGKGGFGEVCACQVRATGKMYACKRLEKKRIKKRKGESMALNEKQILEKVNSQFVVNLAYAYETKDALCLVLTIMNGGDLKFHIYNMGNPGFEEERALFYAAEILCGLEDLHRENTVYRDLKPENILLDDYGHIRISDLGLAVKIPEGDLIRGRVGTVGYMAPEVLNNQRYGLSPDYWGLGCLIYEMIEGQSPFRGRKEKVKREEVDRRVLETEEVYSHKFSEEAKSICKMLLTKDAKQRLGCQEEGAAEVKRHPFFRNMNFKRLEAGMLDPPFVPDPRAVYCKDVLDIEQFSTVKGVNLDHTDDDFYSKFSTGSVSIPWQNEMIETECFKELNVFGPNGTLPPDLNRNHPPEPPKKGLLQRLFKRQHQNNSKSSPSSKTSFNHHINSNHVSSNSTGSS
Sequence of RPS6KA6, construct: Full length (Q9UK32 whole entry, looked up): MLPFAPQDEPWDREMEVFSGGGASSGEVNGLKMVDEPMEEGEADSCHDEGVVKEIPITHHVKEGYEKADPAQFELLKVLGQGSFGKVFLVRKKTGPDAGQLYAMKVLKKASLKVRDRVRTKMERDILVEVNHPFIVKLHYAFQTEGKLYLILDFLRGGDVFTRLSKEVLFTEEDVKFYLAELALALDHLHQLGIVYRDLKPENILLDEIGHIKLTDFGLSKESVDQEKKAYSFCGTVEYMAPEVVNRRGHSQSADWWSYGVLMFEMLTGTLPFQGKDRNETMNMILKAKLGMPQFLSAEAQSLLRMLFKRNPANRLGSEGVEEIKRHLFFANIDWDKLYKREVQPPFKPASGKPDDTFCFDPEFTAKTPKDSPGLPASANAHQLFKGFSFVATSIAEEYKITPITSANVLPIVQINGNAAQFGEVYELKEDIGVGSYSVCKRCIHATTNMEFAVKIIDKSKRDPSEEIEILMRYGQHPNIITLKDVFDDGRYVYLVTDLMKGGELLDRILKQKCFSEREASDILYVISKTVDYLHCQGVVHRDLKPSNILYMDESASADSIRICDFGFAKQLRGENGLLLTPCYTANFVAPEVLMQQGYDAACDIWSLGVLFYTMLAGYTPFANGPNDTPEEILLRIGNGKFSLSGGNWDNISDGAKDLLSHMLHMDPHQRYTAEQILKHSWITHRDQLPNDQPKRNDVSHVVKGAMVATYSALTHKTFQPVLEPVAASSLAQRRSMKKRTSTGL

Point of comparison: “CLK3, construct: Full length (from UniProt P49761)”, relative phosphorylation 0.457. Against it:
- MELK, construct: aa1-340 (from UniProt Q14680) — higher, 0.79
- RPS6KA6, construct: Full length (from UniProt Q9UK32) — higher, 0.696
- GRK5, construct: Full length (from UniProt P34947) — higher, 0.705
- TTK, construct: Full length (from UniProt P33981) — higher, 1.23
- PRPF4B, construct: aa519-end (from UniProt Q13523) — higher, 0.953

Same assay, conditions: V fixed; at +4

Point of comparison: “CLK3, construct: Full length (from UniProt P49761)”, relative phosphorylation 0.796. Against it:
- PAK3, construct: Full length (from UniProt O75914) — higher, 0.908
- MASTL, construct: Full length (from UniProt Q96GX5) — higher, 0.831
- MELK, construct: aa1-340 (from UniProt Q14680) — higher, 1.05
- RPS6KA6, construct: Full length (from UniProt Q9UK32) — lower, 0.625
- GRK5, construct: Full length (from UniProt P34947) — higher, 0.867
- TTK, construct: Full length (from UniProt P33981) — lower, 0.651
- PRPF4B, construct: aa519-end (from UniProt Q13523) — higher, 0.882

Same assay, conditions: V fixed; at -1

Point of comparison: “PRPF4B, construct: aa519-end (from UniProt Q13523)”, relative phosphorylation 0.922. Against it:
- PAK3, construct: Full length (from UniProt O75914) — lower, 0.914
- MASTL, construct: Full length (from UniProt Q96GX5) — lower, 0.649
- MELK, construct: aa1-340 (from UniProt Q14680) — lower, 0.885
- CLK3, construct: Full length (from UniProt P49761) — lower, 0.367
- RPS6KA6, construct: Full length (from UniProt Q9UK32) — lower, 0.36
- GRK5, construct: Full length (from UniProt P34947) — higher, 1.07
- TTK, construct: Full length (from UniProt P33981) — lower, 0.837

Same assay, conditions: V fixed; at -2

Point of comparison: “PRPF4B, construct: aa519-end (from UniProt Q13523)”, relative phosphorylation 1. Against it:
- PAK3, construct: Full length (from UniProt O75914) — lower, 0.748
- MASTL, construct: Full length (from UniProt Q96GX5) — lower, 0.558
- MELK, construct: aa1-340 (from UniProt Q14680) — lower, 0.893
- CLK3, construct: Full length (from UniProt P49761) — lower, 0.432
- RPS6KA6, construct: Full length (from UniProt Q9UK32) — lower, 0.265
- GRK5, construct: Full length (from UniProt P34947) — lower, 0.751
- TTK, construct: Full length (from UniProt P33981) — lower, 0.337

Same assay, conditions: V fixed; at -3

Point of comparison: “GRK5, construct: Full length (from UniProt P34947)”, relative phosphorylation 1.5. Against it:
- PAK3, construct: Full length (from UniProt O75914) — lower, 0.512
- MASTL, construct: Full length (from UniProt Q96GX5) — lower, 0.678
- MELK, construct: aa1-340 (from UniProt Q14680) — lower, 0.394
- CLK3, construct: Full length (from UniProt P49761) — lower, 0.436
- RPS6KA6, construct: Full length (from UniProt Q9UK32) — lower, 0.208
- TTK, construct: Full length (from UniProt P33981) — lower, 0.487
- PRPF4B, construct: aa519-end (from UniProt Q13523) — lower, 0.384

Same assay, conditions: V fixed; at -4

Point of comparison: “MASTL, construct: Full length (from UniProt Q96GX5)”, relative phosphorylation 0.703. Against it:
- PAK3, construct: Full length (from UniProt O75914) — higher, 0.756
- MELK, construct: aa1-340 (from UniProt Q14680) — lower, 0.701
- CLK3, construct: Full length (from UniProt P49761) — lower, 0.535
- RPS6KA6, construct: Full length (from UniProt Q9UK32) — lower, 0.568
- GRK5, construct: Full length (from UniProt P34947) — higher, 0.955
- TTK, construct: Full length (from UniProt P33981) — lower, 0.675
- PRPF4B, construct: aa519-end (from UniProt Q13523) — lower, 0.625

Same assay, conditions: V fixed; at -5

Point of comparison: “RPS6KA6, construct: Full length (from UniProt Q9UK32)”, relative phosphorylation 0.538. Against it:
- PAK3, construct: Full length (from UniProt O75914) — higher, 0.757
- MASTL, construct: Full length (from UniProt Q96GX5) — higher, 0.909
- MELK, construct: aa1-340 (from UniProt Q14680) — higher, 0.814
- CLK3, construct: Full length (from UniProt P49761) — higher, 0.735
- GRK5, construct: Full length (from UniProt P34947) — higher, 1.06
- TTK, construct: Full length (from UniProt P33981) — higher, 0.784
- PRPF4B, construct: aa519-end (from UniProt Q13523) — higher, 0.987

Same assay, conditions: W fixed; at +1

Point of comparison: “GRK5, construct: Full length (from UniProt P34947)”, relative phosphorylation 0.944. Against it:
- PAK3, construct: Full length (from UniProt O75914) — higher, 1.66
- MASTL, construct: Full length (from UniProt Q96GX5) — higher, 1.03
- MELK, construct: aa1-340 (from UniProt Q14680) — higher, 0.959
- CLK3, construct: Full length (from UniProt P49761) — lower, 0.368
- RPS6KA6, construct: Full length (from UniProt Q9UK32) — lower, 0.716
- TTK, construct: Full length (from UniProt P33981) — lower, 0.704
- PRPF4B, construct: aa519-end (from UniProt Q13523) — lower, 0.532

Same assay, conditions: W fixed; at +2

Point of comparison: “MELK, construct: aa1-340 (from UniProt Q14680)”, relative phosphorylation 0.808. Against it:
- PAK3, construct: Full length (from UniProt O75914) — higher, 1.11
- MASTL, construct: Full length (from UniProt Q96GX5) — higher, 1.6
- CLK3, construct: Full length (from UniProt P49761) — lower, 0.628
- RPS6KA6, construct: Full length (from UniProt Q9UK32) — higher, 1.58
- GRK5, construct: Full length (from UniProt P34947) — higher, 1.3
- TTK, construct: Full length (from UniProt P33981) — higher, 1.75
- PRPF4B, construct: aa519-end (from UniProt Q13523) — higher, 1.52

Same assay, conditions: W fixed; at +3

Point of comparison: “PRPF4B, construct: aa519-end (from UniProt Q13523)”, relative phosphorylation 0.846. Against it:
- PAK3, construct: Full length (from UniProt O75914) — higher, 1.26
- MASTL, construct: Full length (from UniProt Q96GX5) — higher, 2.11
- MELK, construct: aa1-340 (from UniProt Q14680) — higher, 1.69
- CLK3, construct: Full length (from UniProt P49761) — lower, 0.483
- RPS6KA6, construct: Full length (from UniProt Q9UK32) — higher, 0.975
- GRK5, construct: Full length (from UniProt P34947) — higher, 1.35
- TTK, construct: Full length (from UniProt P33981) — higher, 1.29

Same assay, conditions: W fixed; at +4

Point of comparison: “MASTL, construct: Full length (from UniProt Q96GX5)”, relative phosphorylation 1.28. Against it:
- PAK3, construct: Full length (from UniProt O75914) — lower, 1.04
- MELK, construct: aa1-340 (from UniProt Q14680) — lower, 0.848
- CLK3, construct: Full length (from UniProt P49761) — lower, 0.732
- RPS6KA6, construct: Full length (from UniProt Q9UK32) — lower, 1.03
- GRK5, construct: Full length (from UniProt P34947) — lower, 1.1
- TTK, construct: Full length (from UniProt P33981) — lower, 1.21
